T1: PRPF40A N-ext-WW12 (residues 56-236) (human, UniProt O75400 56-236)
T1 construct: PRPF40A isoform 1, residues 56-236: N-terminal proline-rich region and both WW domains; pETM11 vector; also called Nter Ext WW12; N-terminal extended WW12 construct; source: E. coli BL21(DE3), purified (Ni-NTA, TEV cleavage, reverse Ni-NTA, SEC); not shown: His6, N-terminal, cleaved
T1 sequence (looked up): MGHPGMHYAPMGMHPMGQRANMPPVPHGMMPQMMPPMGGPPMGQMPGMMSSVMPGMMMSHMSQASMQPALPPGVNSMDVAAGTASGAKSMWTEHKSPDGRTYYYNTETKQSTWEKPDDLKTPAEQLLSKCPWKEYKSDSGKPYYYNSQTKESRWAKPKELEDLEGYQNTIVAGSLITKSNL

B1: GB1-tagged SF1 470-485 peptide (peptide)
chain: GAMSGSMPPPPMGMMPPPPPPPSGSN
notes: common N-terminal residues after the TEV site; SF1 residues 470-485; common C-terminal residues; source: E. coli BL21(DE3), purified (Ni-NTA, SEC), GB1 tag kept; not shown: GB1, N-terminal, kept
B2: GB1-SF1(623-638) 16-mer peptide (peptide)
chain: GAMSGSMPPFGMPPAPPPPPPQSGSN
notes: common N-terminal residues after the TEV site (TEVsite-GAMSGS-peptide-SGSN); SF1 (splicing factor 1) residues 623-638; common C-terminal residues; pET24 vector with 6xHis, GB1 and TEV site as N-terminal cassette, not cleaved; source: E. coli BL21(DE3), purified (Ni-NTA, SEC); not shown: GB1, N-terminal, kept
B3: GB1-SF1(425-440) 16-mer peptide (peptide)
chain: GAMSGSMQPPPPPMNQGPHPPGSGSN
notes: common N-terminal residues after the TEV site (TEVsite-GAMSGS-peptide-SGSN); SF1 (splicing factor 1) residues 425-440; common C-terminal residues; pET24 vector with 6xHis, GB1 and TEV site as N-terminal cassette, not cleaved; source: E. coli BL21(DE3), purified (Ni-NTA, SEC); not shown: GB1, N-terminal, kept
B4: GB1-SF1(478-493) 16-mer peptide (peptide)
chain: GAMSGSMPPPPPPPSGQPPPPPSGSN
notes: common N-terminal residues after the TEV site (TEVsite-GAMSGS-peptide-SGSN); SF1 (splicing factor 1) residues 478-493; common C-terminal residues; pET24 vector with 6xHis, GB1 and TEV site as N-terminal cassette, not cleaved; source: E. coli BL21(DE3), purified (Ni-NTA, SEC); not shown: GB1, N-terminal, kept
B5: GB1-polyproline peptide P19 (peptide)
chain: GAMSGSPPPPPPPPPPPPPPPPPPPSGSN
notes: common N-terminal residues after the TEV site (TEVsite-GAMSGS-peptide-SGSN); 19 consecutive prolines; common C-terminal residues; pET24 vector with 6xHis, GB1 and TEV site as N-terminal cassette, not cleaved; also called polyproline length 19; source: E. coli BL21(DE3), purified (Ni-NTA, SEC); not shown: GB1, N-terminal, kept
B6: GB1-polyproline peptide P22 (peptide)
chain: GAMSGSPPPPPPPPPPPPPPPPPPPPPPSGSN
notes: common N-terminal residues after the TEV site (TEVsite-GAMSGS-peptide-SGSN); 22 consecutive prolines; common C-terminal residues; pET24 vector with 6xHis, GB1 and TEV site as N-terminal cassette, not cleaved; also called polyproline length 22; source: E. coli BL21(DE3), purified (Ni-NTA, SEC); not shown: GB1, N-terminal, kept
B7: GB1-polyproline peptide P8 (peptide)
chain: GAMSGSPPPPPPPPSGSN
notes: common N-terminal residues after the TEV site (TEVsite-GAMSGS-peptide-SGSN); 8 consecutive prolines; common C-terminal residues; pET24 vector with 6xHis, GB1 and TEV site as N-terminal cassette, not cleaved; also called polyproline length 8; source: E. coli BL21(DE3), purified (Ni-NTA, SEC); not shown: GB1, N-terminal, kept
B8: GB1-polyproline peptide P29 (peptide)
chain: GAMSGSPPPPPPPPPPPPPPPPPPPPPPPPPPPPPSGSN
notes: common N-terminal residues after the TEV site (TEVsite-GAMSGS-peptide-SGSN); 29 consecutive prolines; common C-terminal residues; pET24 vector with 6xHis, GB1 and TEV site as N-terminal cassette, not cleaved; also called polyproline length 29; source: E. coli BL21(DE3), purified (Ni-NTA, SEC); not shown: GB1, N-terminal, kept
B9: GB1-polyproline peptide P13 (peptide)
chain: GAMSGSPPPPPPPPPPPPPSGSN
notes: common N-terminal residues after the TEV site (TEVsite-GAMSGS-peptide-SGSN); 13 consecutive prolines; common C-terminal residues; pET24 vector with 6xHis, GB1 and TEV site as N-terminal cassette, not cleaved; also called polyproline length 13; source: E. coli BL21(DE3), purified (Ni-NTA, SEC); not shown: GB1, N-terminal, kept
B10: GB1-polyproline peptide P25 (peptide)
chain: GAMSGSPPPPPPPPPPPPPPPPPPPPPPPPPSGSN
notes: common N-terminal residues after the TEV site (TEVsite-GAMSGS-peptide-SGSN); 25 consecutive prolines; common C-terminal residues; pET24 vector with 6xHis, GB1 and TEV site as N-terminal cassette, not cleaved; also called polyproline length 25; source: E. coli BL21(DE3), purified (Ni-NTA, SEC); not shown: GB1, N-terminal, kept
B11: GB1-SF1(470-485) 16-mer peptide (peptide)
chain: GAMSGSMPPPPMGMMPPPPPPPSGSN
notes: common N-terminal residues after the TEV site (TEVsite-GAMSGS-peptide-SGSN); SF1 (splicing factor 1) residues 470-485; common C-terminal residues; pET24 vector with 6xHis, GB1 and TEV site as N-terminal cassette, not cleaved; source: E. coli BL21(DE3), purified (Ni-NTA, SEC); not shown: GB1, N-terminal, kept
B12: GB1-SF1 Pro ABCD (residues 410-639) (domain or fragment, UniProt Q15637 410-639, looked up)
chain: GHPMQHNPNGPPPPWMQPPPPPMNQGPHPPGHHGPPPMDQYLGSTPVGSGVYRLHQGKGMMPPPPMGMMPPPPPPPSGQPPPPPSGPLPPWQQQQQQPPPPPPPSSSMASSTPLPWQQNTTTTTTSAGTGSIPPWQQQQAAAAASPGAPQMQGNPTMVPLPPGVQPPLPPGAPPPPPPPPPGSAGMMYAPPPPPPPPMDPSNFVTMMGMGVAGMPPFGMPPAPPPPPPQN
notes: splicing factor 1 (SF1), residues 410-639, the complete proline-rich C-terminal region; His6-GB1-TEV site cassette of the pET24 vector, not cleaved; source: E. coli BL21(DE3), purified (Ni-NTA, SEC); not shown: GB1, N-terminal, kept
B13: GB1-SF3A1 Middle Pro (residues 364-413) (domain or fragment, UniProt Q15459 364-413, looked up)
chain: EGQKVPPPPETPMPPPLPPTPDQVIVRKDYDPKASKPLPPAPAPDEYLVS
notes: SF3A1 (U2 snRNP component), proline-rich region, residues 364-413; His6-GB1-TEV site cassette of the pET24 vector, not cleaved; source: E. coli BL21(DE3), purified (Ni-NTA, SEC); not shown: GB1, N-terminal, kept

“And” between values parts separate entries of the source, which are not always exact repeats. Equal values may be shown once.

The target of one assay is T2, PRPF40A WW12 (tandem WW domains, residues 141-236) (human, UniProt O75400 141-236).
T2 construct: pETM11 vector, NcoI/KpnI; 15N or 13C,15N labelled for NMR; also called PRPF40A WW tandem; PRPF40A tandem WW domains; source: E. coli BL21(DE3), purified (Ni-NTA, TEV, reverse Ni-NTA, SEC); not shown: His6, N-terminal, cleaved
As to the kind of experiment: ITC; 16-mer SF1 and polyproline peptides (N-terminal GB1 tagged) in the cell and PRPF40A construct in the syringe (said for Fig. 2; not told for Fig. 5C); 25 °C, 20 mM sodium phosphate pH 6.5, 100 mM NaCl; one-site model; apparent affinities. The note with it: both partners purified. On the technique in general: Isothermal titration calorimetry measures the heat released or taken up as one component is titrated into another.
Turning to B1, the Kd is roughly 10 µM.

The next assay has as its target T3, PRPF40A WW12 (tandem WW domains, residues 141-236) (human, UniProt O75400 141-236).
T3 construct: pETM11 vector (NcoI/KpnI); also called PRPF40A WW tandem; isolated WW domains; source: E. coli BL21(DE3), purified (Ni-NTA, TEV cleavage, reverse Ni-NTA, SEC); not shown: His6, N-terminal, cleaved
In words: ITC; MicroCal PEAQ-ITC, 25 °C, 20 mM sodium phosphate pH 6.5, 100 mM NaCl; PRPF40A constructs and GB1-tagged SF1 16-mer peptides; who was in the syringe is not stated for these panels (Fig. 2B, Fig. 5C); one-site model. The conditions noted are these: both partners purified.
In the case of B2, the Kd is 21.8 µM and 24.8 µM and 23.3 µM.
As to B3, the Kd was 15.9 µM and 21.8 µM and 22.9 µM and 20.2 µM.
Regarding B4, the Kd was 8.26 µM and 10.3 µM and 10.2 µM and 9.59 µM.

The next assay has as its target T3, PRPF40A WW12 (tandem WW domains, …). In words: ITC; MicroCal PEAQ-ITC, 25 °C, 20 mM sodium phosphate pH 6.5, 100 mM NaCl; GB1-polyproline peptides in the cell, WW12 in the syringe (N sites >1: more than one WW tandem on one peptide); one-site model; apparent. The conditions noted are these: both partners purified.
Take B5: the Kd was 7.02 µM and 6.5 µM and 6.76 µM.
B6: the Kd is 8.84 µM and 9.73 µM and 9.29 µM.
On to B7, for which the Kd was greater than 50 µM.
Consider B8, for which the Kd was 7.3 µM and 11 µM and 9.15 µM.
In the case of B9, the Kd was 7.58 µM and 10.6 µM and 7.45 µM and 8.54 µM.
Turning to B10, the Kd was 10.5 µM and 11 µM and 10.8 µM.

The target in another assay is T1, PRPF40A N-ext-WW12 (residues 56-236). In words: ITC; MicroCal PEAQ-ITC, 25 °C, 20 mM sodium phosphate pH 6.5, 100 mM NaCl; PRPF40A constructs and GB1-tagged SF1 16-mer peptides; who was in the syringe is not stated for these panels (Fig. 2B, Fig. 5C); one-site model. The conditions noted are these: both partners purified.
Take B11: the Kd is greater than 250 µM.

A further assay addresses T4, PRPF40A WW12 (tandem WW domains, residues 141-236) (human, UniProt O75400 141-236).
T4 construct: A few vector residues probably remain at the N-terminus after TEV cleavage (pETM11, NcoI site); 15N-labelled in the NMR experiments; also called PRPF40A WW tandem; WW12 wt; source: E. coli BL21(DE3), purified (Ni-NTA, TEV digestion, reverse Ni-NTA, SEC); not shown: His6, N-terminal, cleaved
As to the kind of experiment: ITC; PRPF40A construct (WW12, N-ext-WW12 or its mutant) in the cell, GB1-SF1 or GB1-SF3A1 construct in the syringe (as shown in Supplementary Figures 16 and 21); 25 °C, 20 mM sodium phosphate pH 6.5, 100 mM NaCl; one-site binding model; at least duplicates; affinities apparent. The note with it: both partners purified.
What is called stoichiometry N is the number of molecules, sites or subunits per partner or assembly. As for B12, the “stoichiometry N” value came to 0.28 ± 0.05 sites.
With B13, the Kd is 8.86 ± 1.38 µM and the “stoichiometry N” value was found to be 0.56 ± 0.14 sites.

(Values after PMC11079029, “Intramolecular autoinhibition regulates the selectivity of PRPF40A tandem WW domains for proline-rich motifs” (Nature Communications, 2024).)
